{"source": "paper PMC12668182", "key": {"[1]": {"target": "HaloTag-CSB, full length, JaneliaFluor-labelled (human) (UniProt Q03468)", "assay": "single-molecule fluorescence on tethered DNA (SMADNE, LUMICKS C-Trap); oligomerisation state of HaloTag-CSB (photon counts) in events colocalised with SNM1A on lambda dsDNA; DNA present"}, "[2]": {"target": "HaloTag-CSB, full length, JaneliaFluor-labelled (human) (UniProt Q03468)", "assay": "single-molecule fluorescence on tethered DNA (SMADNE, LUMICKS C-Trap); two-colour HaloTag-CSB nuclear extracts (JF552 and JF635) on lambda dsDNA; colocalisation and photon counts; 20 mM HEPES pH 7.5, 10% glycerol, 1 mM DTT, 1 mM MgCl2; 30 C; DNA present"}, "[3]": {"target": "HaloTag-CSB, full length, JaneliaFluor-labelled (human) (UniProt Q03468)", "assay": "single-molecule fluorescence on tethered DNA (SMADNE, LUMICKS C-Trap); oligomerisation state of HaloTag-CSB (photon counts) at the site-specific ICL repair intermediate, alone or colocalised with SNM1A; DNA present"}, "[4]": {"system": "HaloTag-CSB full-length (nuclear extract, SMADNE);HaloTag-SNM1A catalytic domain", "assay": "single-molecule (optical tweezers C-Trap)", "conditions": "EMSA: 20 mM HEPES-KOH pH 7.5, 50 mM KCl, 0.05% Triton X-100, 0.5 mM TCEP, 5% glycerol, 1 nM oligo, 4 C, C-Trap: 20 mM HEPES pH 7.5, 10% glycerol, 1 mM DTT"}, "[5]": {"system": "HaloTag-SNM1A catalytic domain", "assay": "single-molecule (optical tweezers C-Trap)", "conditions": "EMSA: 20 mM HEPES-KOH pH 7.5, 50 mM KCl, 0.05% Triton X-100, 0.5 mM TCEP, 5% glycerol, 1 nM oligo, 4 C, C-Trap: 20 mM HEPES pH 7.5, 10% glycerol, 1 mM DTT"}, "[6]": {"target": "full-length CSB (ERCC6), wild type, recombinant (human) (UniProt Q03468)", "assay": "SEC; purification of full-length CSB alone on Superdex S200; retention volume compared with calibration curves; 50 mM HEPES pH 8, 300 mM NaCl, 1 mM TCEP; monomer to dimer"}, "[7]": {"system": "HaloTag-CSB full-length (nuclear extract, SMADNE)", "assay": "single-molecule (SMADNE, optical tweezers C-Trap)", "conditions": "EMSA: 20 mM HEPES-KOH pH 7.5, 50 mM KCl, 0.05% Triton X-100, 0.5 mM TCEP, 5% glycerol, 1 nM oligo, 4 C, C-Trap: 20 mM HEPES pH 7.5, 10% glycerol, 1 mM DTT"}, "[8]": {"conditions": "triazole click ICL (azide-C6-amino-dA x octadiynyl-dU), 5'P flap"}}, "note": "pKd: −log10 of the molar value."}
{"substance": "HaloTag-CSB, full length, JaneliaFluor-labelled (from UniProt Q03468 1-1493) (natural protein)", "values": [{"measurement": "percent of CSB:SNM1A colocalisation events on lambda DNA in which CSB was a dimer", "setting": "[1]", "result": 73, "unit": "%"}, {"measurement": "percent of CSB binding events on lambda DNA that were dimeric", "setting": "[2]", "result": 35, "unit": "%"}, {"measurement": "percent of single colour tracks in which a dimeric CSB bound to DNA", "setting": "[2]", "result": 20, "unit": "%"}, {"measurement": "percent of CSB events at the ICL repair intermediate that were dimeric", "setting": "[3]", "result": 78, "unit": "%"}, {"measurement": "percent of SNM1A:CSB events on ICL repair intermediates with dimeric CSB", "setting": "[3]", "result": 90, "unit": "%"}]}
{"substance": "ICL flap repair intermediate (C-Trap)", "values": [{"measurement": "pKd", "setting": "[4]; [8]", "result": 7.35}, {"measurement": "pKd", "setting": "[5]; [8]", "result": 6.45}]}
{"substance": "full-length CSB (ERCC6), wild type, recombinant (from UniProt Q03468 1-1493) (natural protein)", "values": [{"measurement": "stoichiometry N", "setting": "[6]", "result": 2}]}
{"substance": "lambda DNA (undamaged)", "values": [{"measurement": "pKd", "setting": "[4]", "result": 7.76}, {"measurement": "pKd", "setting": "[5]", "result": 7.66}, {"measurement": "pKd", "setting": "[7]", "result": 8.92}]}
